Data from PMC12755392, “p62 sorts Lupus La and selected microRNAs into breast cancer-derived exosomes”.

Target: T1, La 1-408 (full-length Lupus La) (Homo sapiens, UniProt P05455 1-408)
T1 sequence: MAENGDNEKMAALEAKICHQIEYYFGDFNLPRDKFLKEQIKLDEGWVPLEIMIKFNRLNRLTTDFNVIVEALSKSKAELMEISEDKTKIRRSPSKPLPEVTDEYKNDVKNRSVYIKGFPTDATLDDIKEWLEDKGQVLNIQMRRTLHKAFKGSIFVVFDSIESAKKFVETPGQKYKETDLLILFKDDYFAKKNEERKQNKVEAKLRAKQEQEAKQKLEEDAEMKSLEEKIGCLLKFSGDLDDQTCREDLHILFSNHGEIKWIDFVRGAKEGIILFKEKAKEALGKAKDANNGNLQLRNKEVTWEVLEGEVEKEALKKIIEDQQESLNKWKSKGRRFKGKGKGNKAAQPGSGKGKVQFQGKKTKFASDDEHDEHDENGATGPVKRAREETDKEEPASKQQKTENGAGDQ
Experiment: EMSA; EMSA: 1 nM miRNA, 25 mM Tris-HCl pH 8.0, 100 mM KCl, 1.5 mM MgCl2, 1 mM DTT, 0.05% NP-40, 5% glycerol, 50 ug/ml heparin, 1 U/ul RiboLock; 30 C 30 min then 4 C 10 min; Hill fit
Conditions: protein: recombinant; tags: C-terminal Nluc-FLAG-His6; label: 5' IRD800; single strand

| Binder | Kd [nM] |
| --- | --- |
| UGAUAUGUUUGAUAUAUUAGGU (ssRNA) [miR-190] | 1150 |
| UGGAGUGUGACAAUGGUGUUUG (ssRNA) [miR-122 (hsa-miR-122-5p?)] | 14.1 |
